Assay [1] concerns the target T1, recombinant mouse PD-1-his protein (mouse, UniProt Q02242 25-167, limits assumed).
T1 construct: not shown: his tag
T1 sequence (looked up): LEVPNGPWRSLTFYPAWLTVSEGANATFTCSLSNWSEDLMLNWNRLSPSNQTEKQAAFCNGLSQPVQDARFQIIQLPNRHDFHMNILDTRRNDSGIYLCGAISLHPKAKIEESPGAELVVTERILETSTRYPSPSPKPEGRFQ
In words: ELISA; PD-1-his coated 2 µg/mL, anti-human IgG-HRP. Here is the method: Ninety-six-well Greiner plates were coated with 2 μg/mL of recombinant human PD-1-his protein, recombinant monkey PD-1-his protein and recombinant mouse PD-1-his protein at 4° C. overnight. The next day, the plates were blocked with 1% casein. […] Then, the plates were washed with PBST. Anti-human IgG-HRP (diluted in 1% casein at 1:5000) was added and incubated for 1 hr., and binding detection was performed.
For orientation: An ELISA detects its analyte on a solid surface through an enzyme-linked reagent.

The target in assay [2] is T2, human PD-1 on HEK293 cells overexpressing human PD-1 (human, UniProt Q15116 25-288).
T2 construct: whole, on cells; also called HEK293/hPD1; hPD-1
T2 sequence (Q15116 25-288): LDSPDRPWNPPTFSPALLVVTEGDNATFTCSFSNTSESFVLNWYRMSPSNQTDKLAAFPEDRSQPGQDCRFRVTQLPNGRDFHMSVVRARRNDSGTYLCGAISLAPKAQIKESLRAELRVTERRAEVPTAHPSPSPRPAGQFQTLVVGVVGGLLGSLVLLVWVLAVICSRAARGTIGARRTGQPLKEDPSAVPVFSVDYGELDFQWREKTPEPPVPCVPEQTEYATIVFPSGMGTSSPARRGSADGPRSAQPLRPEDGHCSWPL
Put plainly: competitive flow cytometry on HEK293 cells overexpressing human PD-1; 1.0 µg/mL biotinylated human PD-L1 as competitor, PE-SA. Here is the method:
The cells were harvested and washed once with test buffer. […] The data were analyzed using FCS Express 6 Plus and GraphPad Prism 5 software.
For orientation: Flow cytometry measures light scatter and fluorescence of single cells or particles in a stream.

Assay [3] addresses T2, human PD-1 on HEK293 cells …. In words: flow cytometry on HEK293 cells overexpressing human PD-1; PE-anti-human IgG. Here is the method:
HEK293 cells overexpressing the human PD-1 were cultured in a DMEM medium containing 10% FBS in a CO₂ incubator (37° C., 5% CO₂). The cells were harvested and washed once with test buffer. Cells were counted and detected for viability. […] The cells were washed with washing buffer, and 100 μL of PE-anti-human IgG was added in accordance with the instruction and incubated in dark at 4° C. for 1 hr. The cells were washed three times with washing buffer, and individual samples were re-suspended in 200 μL of PBS and detected by flow cytometer. The data were analyzed using FCS Express 6 Plus and GraphPad Prism 5 software.

Assay [4] has as its target T3, recombinant human PD-1-his protein (human, UniProt Q15116 25-167).
T3 construct: also called hPD-1-his; not shown: his tag
Put plainly: SPR (Biacore 8K); PD-1-his amine-coupled to CM5, 1:1 Langmuir fit. Here is the method:
About 250RU of recombinant human PD-1-his protein was coupled to a CM5 chip at 25° C. using an amine coupling kit (GE Healthcare, Cat No. BR100050) according to standard amine coupling procedure. […] (five concentrations were detected). The binding time was 120 s, and the dissociation time was 600 s. The curve was fitted with 1:1 Langmuir binding model using Biacore®8K analysis software (BIAevaluation) to determine the kinetic constants thereof, such as, association rate constant, dissociation rate constant, equilibrium dissociation constant, etc.
On the technique in general: SPR reads the build-up and loss of mass on a sensor chip optically.

Assay [5] addresses T4, recombinant human PD-1 (C-Fc & C-Avi & C-6×His) (human, UniProt Q15116 25-167).
T4 construct: not shown: C-terminal Fc, Avi tag and 6×His tag
Put plainly: competitive ELISA; PD-L1 (C-Fc) coated, 0.5 µg/mL PD-1 (C-Fc & C-Avi & C-6×His), streptavidin-HRP. Here is the method:
The plates were blocked with 1% casein. […] The plates were washed with PBST between incubations. Horseradish peroxidase-labelled streptavidin (1:10000) was used for detection, and Graphpad Prism software was used to fit the curve and calculate the EC₅₀ value, with the results shown in Table 3.

Assay [6] addresses T3, recombinant human PD-1-his protein. In words: ELISA (first round of humanization); PD-1-his coated 2 µg/mL, anti-human IgG Fc-HRP. Here is the method: 96-well ELISA plates were coated with 2 μg/mL of recombinant human PD-1-his antigen protein at 30 μL/well at 4° C. overnight. The plates were washed three times with PBST. 5% PBS-Milk was added and incubated at room temperature for 2 h. The plates were washed three times with PBST. All the nanobody-Fc fusion proteins were subject to 3-fold gradient dilutions with an initial concentration of 10 μg/mL, added into each well at 30 μL/well, and incubated at room temperature for 1 hr. The plates were washed three times with PBST. The secondary antibody Goat-Anti-Human-IgG-Fc-HRP (purchased from Sigma) was diluted at 1:8000, added into each well at 30 μL/well, and incubated at room temperature for 50 min. The plates were washed three times with PBST. TMB (purchased from SurModics) was added into each well at 30 μL/well and developed at room temperature in dark for 1 min to 5 min. 2 M hydrochloric acid was added at 30 μL/well to stop the reaction. The OD450 absorbance value was read by a microplate reader.

In assay [7] the target is T5, recombinant human PD-1 protein (human, UniProt Q15116 25-167, limits assumed).
T5 construct: also called recombinant human PD-1 antigen; human recombinant PD-1
T5 sequence (Q15116 25-167 limits assumed): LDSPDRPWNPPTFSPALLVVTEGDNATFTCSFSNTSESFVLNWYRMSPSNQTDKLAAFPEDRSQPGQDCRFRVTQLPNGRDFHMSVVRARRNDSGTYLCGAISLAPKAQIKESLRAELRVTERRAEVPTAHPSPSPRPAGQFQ
Put plainly: competitive ELISA; PD-1 coated 2 µg/mL, 4 µg/mL PD-L1-Fc as competitor, anti-human IgG-HRP. Here is the method:
Ninety-six-well plates were coated with recombinant human PD-1 antigen (2 μg/mL) at 4° C. overnight. The plates were blocked with 1% casein. […] The plates were washed with PBST between incubations.

In assay [8] the target is PD1 on Jurkat-NFAT-PD1 transgene cells. In words: cell-based or functional assay.
Assay [9] has as its target T3, recombinant human PD-1-his protein. In words: ELISA; PD-1-his coated 2 µg/mL, anti-human IgG Fc-HRP. Here is the method: (§1) The plates were washed three times with PBST. 5% PBS-Milk and incubated at room temperature for 2 h. The plates were washed three times with PBST. All the nanobody-Fc fusion proteins were subject to 3-folded gradient dilution with an initial concentration of 10 μg/mL, added into each well at 30 μL/well, and incubated at room temperature for 1 hr. The plates were washed three times with PBST. The secondary antibody Goat-Anti-Human-IgG-Fc-HRP was diluted at 1:8000, added into each well at 30 μL/well, and incubated at room temperature for 50 min. The plates were washed nine times with PBST. TMB was added into each well at 30 μL/well and developed at room temperature in dark for 1 min to 5 min. 2 M hydrochloric acid was added at 30 μL/well to stop the reaction. The OD450 absorbance value was read by a microplate reader. Graphpad Prism software was used to fit the curve and calculate EC₅₀ values.

The target is the same in assay [10]. The assay is described as above. Here is the method: as §1, with “PBS-Milk was added” for “PBS-Milk”, “3-fold” for “3-folded”, “dilutions” for “dilution”, “calculate the” for “calculate”, “value (see Table 7).” for “values.”
This is another data set of the same source.

In assay [11] the target is T6, recombinant human PD-1-Fc-Biotin (human, UniProt Q15116 25-167, biotin (site not stated)).
T6 construct: also called antigen protein human PD-1; not shown: Fc
T6 sequence (Q15116 25-167 limits assumed): as above
Put plainly: competitive ELISA; PD-L1-mFc coated, 0.5 µg/mL PD-1-Fc-Biotin, streptavidin-HRP. Here is the method:
The plates were washed three times with PBST. 5% PBS-Milk was added and incubated at room temperature for 1 hr. All the nanobody-Fc fusion proteins were subject to 3-fold gradient dilutions with an initial concentration of 10 μg/mL, added into each well at 30 μL/well, and incubated at room temperature for 1 hr. […] The plates were washed with PBST between incubations.

Assay [12] concerns the target T6, recombinant human PD-1-Fc-Biotin. Described as above. Here is the method:
The plates were washed three times with PBST. 5% PBS-Milk was added and incubated at room temperature for 1 hr. All the nanobody-Fc fusion proteins were subject to 3-fold gradient dilutions with an initial concentration of 10 μg/mL, added into each well at 30 μL/well, and incubated at room temperature for 1 hr. […] The well plates were washed with PBST between incubations.
The source holds these as a separate data set.

Data on 3 molecules can be found in US20240309093A1 (MINGHUI PHARMACEUTICAL HANGZHOU, published 2024).

Where two headings read alike, the source gives them in different places.

T3 sequence (Q15116 25-167 limits assumed): as above
T4 sequence (Q15116 25-167 limits assumed): as above

B1: MHPD1-A Fc (Fc fusion)
chain: QVQLVESGGGSVQVGGSLTLSCAASGSDPSIYAMGWFRQAPGKEHEFVAGIGWSAATTYYADSVKGRFGISRDNTKNTVALLMNSLKPEDTAIYYCAADLDHSGFDYWGQGTQVTVSS
notes: C-terminal of VHH directly connected to the N-terminal of the human Fc hinge region; also called nanobody-Fc fusion protein; fusion protein; not shown: human Fc fragment with hinge
Broadly, the EC50 is the concentration giving half of the maximal effect. Usually Kd stands for the equilibrium constant for the complex coming apart. The term koff denotes the rate constant with which the complex falls apart. A word on the kon: it is the second-order rate constant of association. On to B1, for which, in [1], the binding result was “no binding (tested: 5 µg/mL and 1.67 µg/mL)”. The EC50 in [2] was 0.549 µg/mL; in assay [3], 0.245 µg/mL; in assay [5], 0.499 µg/mL; in [6], 0.14 µg/mL. Moreover, the Kd in assay [4] was determined as 0.0425 nM. Further, the koff in assay [4] stood at 1.95e-05 s⁻¹. Moreover, the kon in assay [4] was determined as 460000 M⁻¹ s⁻¹.

B2: MHPD1-A (VHH)
VHH: QVQLVESGGGSVQVGGSLTLSCAASGSDPSIYAMGWFRQAPGKEHEFVAGIGWSAATTYYADSVKGRFGISRDNTKNTVALLMNSLKPEDTAIYYCAADLDHSGFDYWGQGTQVTVSS
notes: tag not described; also called VHH; single-domain antibody MHPD1-A
As for B2, the EC50 in assay [7] was found to be 1.71 µg/mL.

B3: MHPD1-A-7 H Fc (Fc fusion)
chain: QVQLVESGGGLVQPGGSLRLSCATSGSRRSIYAMGWFRQAPGKGLEFVAGIGWAYATTYYADSVKGRFTISRDNTKNTLYLQMNSLRAEDTAVYYCAADLDHSGFDYWGQGTLVTVSS
notes: parent of the second round; also called parent MHPD1-A-7 H Fc; not shown: Fc
As usually defined, the IC50 is the concentration that inhibits the measured activity by half. Take B3: in assay [8], the “luciferase reporter gene fluorescence signal, Jurkat-NFAT-PD1 effector cells with Hep3B-OS8-PDL1 target cells (EC50)” value was 0.07 nM. Further, the values for the EC50 in [9] and in [10] were 0.149 nM and 0.135 nM, respectively. Also, the IC50 in assay [11] was 0.778 nM; in assay [12] it was 0.316 nM.
